Measured values: patent US6083709

Experiments:
Assay in all cases: p53 two-site sandwich ELISA, sample tested at 100 ng/ml
[1] = biological target: hrIGF-1 (human (by the printed prefix hr; not spelled out)) (UniProt P05019)
[2] = biological target: hrIL-2 (human (by the printed prefix hr; not spelled out)) (UniProt P60568)
[3] = biological target: hrIL-3 (human (by the printed prefix hr; not spelled out)) (UniProt P08700)
[4] = biological target: hrGM-CSF (human (by the printed prefix hr; not spelled out)) (UniProt P04141)
[5] = biological target: hrIL-1β (human (by the printed prefix hr; not spelled out)) (UniProt P01584)
[6] = biological target: hrIL-6 (human (by the printed prefix hr; not spelled out)) (UniProt P05231)
[7] = biological target: hG-CSF (human (by the printed prefix h; not spelled out)) (UniProt P09919)
[8] = biological target: hrIL-4 (human (by the printed prefix hr; not spelled out)) (UniProt P05112)
[9] = biological target: hPDGF (human (by the printed prefix h; not spelled out))
[10] = biological target: hrIL-1α (human (by the printed prefix hr; not spelled out)) (UniProt P01583)
[11] = biological target: bInsulin (bovine (by the printed prefix b; not spelled out)) (UniProt P01317)
[12] = biological target: hTransferin (human (by the printed prefix h; not spelled out)) (UniProt P02787)
[13] = biological target: hrTNFα (human (by the printed prefix hr; not spelled out)) (UniProt P01375)

Measured: Assay Results (apparent mutant p53 read in the p53 ELISA)

monoclonal antibody from clone PAb240
< 50 pg/mL: [1] | [2] | [3] | [4] | [5] | [6] | [7] | [8] | [9] | [10] | [11] | [12] | [13]
